Measured values: patent US20200264182A1, “METHOD FOR DETECTING PROSTATE CANCER” (J-OIL MILLS, INC., priority 2017, published 2020)

Columns and labels:
[1] = biological target: serum fucosylated PSA (prostate specific antigen) (human) (UniProt P07288); test: sandwich ELISA, anti-PSA antibody capture, biotin-lectin detection, pH 9.6; serum of Healthy 3
[2] = biological target: serum fucosylated PSA (prostate specific antigen) (human) (UniProt P07288); test: sandwich ELISA, anti-PSA antibody capture, biotin-lectin detection, pH 9.6; subject samples B, subgroup GS7, n=11
[3] = biological target: serum fucosylated PSA (prostate specific antigen) (human) (UniProt P07288); test: sandwich ELISA, anti-PSA antibody capture, biotin-lectin detection, lectin reaction pH 9.6; serum of Prostate cancer 4 (GS6)
[4] = biological target: serum fucosylated PSA (prostate specific antigen) (human) (UniProt P07288); test: sandwich ELISA, anti-PSA antibody capture, biotin-lectin detection, pH 9.6; serum of Prostate cancer 5 (GS 7)
[5] = biological target: serum fucosylated PSA (prostate specific antigen) (human) (UniProt P07288); test: sandwich ELISA, anti-PSA antibody capture, biotin-lectin detection, pH 9.6; serum of Healthy 6
[6] = biological target: serum fucosylated PSA (prostate specific antigen) (human) (UniProt P07288); test: sandwich ELISA, anti-PSA antibody capture, biotin-lectin detection, pH 9.6; sera of subgroup GS8 or more, n=3
[7] = biological target: serum fucosylated PSA (prostate specific antigen) (human) (UniProt P07288); test: sandwich ELISA, anti-PSA antibody capture, biotin-lectin detection, pH 9.6; sera of subgroup GS7, n=2
[8] = biological target: serum fucosylated PSA (prostate specific antigen) (human) (UniProt P07288); test: sandwich ELISA, anti-PSA antibody capture, biotin-lectin detection, pH 9.6; sera of the healthy person group (n=7)
[9] = biological target: serum fucosylated PSA (prostate specific antigen) (human) (UniProt P07288); test: sandwich ELISA, anti-PSA antibody capture, biotin-lectin detection, pH 9.6; serum of Healthy 5
[10] = biological target: serum fucosylated PSA (prostate specific antigen) (human) (UniProt P07288); test: sandwich ELISA, anti-PSA antibody capture, biotin-lectin detection, pH 9.6; sera of subgroup Negative (GS5 or less), n=2
[11] = biological target: serum fucosylated PSA (prostate specific antigen) (human) (UniProt P07288); test: sandwich ELISA, anti-PSA antibody capture, biotin-lectin detection, lectin reaction pH 7.4; serum of Healthy 1
[12] = biological target: serum fucosylated PSA (prostate specific antigen) (human) (UniProt P07288); test: sandwich ELISA, anti-PSA antibody capture, biotin-lectin detection, pH 9.6; serum of Healthy 1
[13] = biological target: serum fucosylated PSA (prostate specific antigen) (human) (UniProt P07288); test: sandwich ELISA, anti-PSA antibody capture, biotin-lectin detection, pH 9.6; subject samples B, subgroup GS8-9, n=6
[14] = biological target: serum fucosylated PSA (prostate specific antigen) (human) (UniProt P07288); test: sandwich ELISA, anti-PSA antibody capture, biotin-lectin detection, pH 9.6; serum of Prostate cancer 7 (GS 8)
[15] = biological target: serum fucosylated PSA (prostate specific antigen) (human) (UniProt P07288); test: sandwich ELISA, anti-PSA antibody capture, biotin-lectin detection, pH 9.6; serum of Healthy 7
[16] = biological target: serum fucosylated PSA (prostate specific antigen) (human) (UniProt P07288); test: sandwich ELISA, anti-PSA antibody capture, biotin-lectin detection, pH 9.6; serum of Healthy 2
[17] = biological target: serum fucosylated PSA (prostate specific antigen) (human) (UniProt P07288); test: sandwich ELISA, anti-PSA antibody capture, biotin-lectin detection, pH 9.6; subject samples B, subgroup GS6, n=9
[18] = biological target: serum fucosylated PSA (prostate specific antigen) (human) (UniProt P07288); test: sandwich ELISA, anti-PSA antibody capture, biotin-lectin detection, lectin reaction pH 7.4; serum of Prostate cancer 4 (GS6)
[19] = biological target: serum fucosylated PSA (prostate specific antigen) (human) (UniProt P07288); test: sandwich ELISA, anti-PSA antibody capture, biotin-lectin detection, pH 9.6; serum of Prostate cancer 3 (GS 6)
[20] = biological target: serum fucosylated PSA (prostate specific antigen) (human) (UniProt P07288); test: sandwich ELISA, anti-PSA antibody capture, biotin-lectin detection, pH 9.6; serum of Prostate cancer 1 (GS 4)
[21] = biological target: serum fucosylated PSA (prostate specific antigen) (human) (UniProt P07288); test: sandwich ELISA, anti-PSA antibody capture, biotin-lectin detection, pH 9.6; serum of Prostate cancer 9 (GS 8)
[22] = biological target: serum fucosylated PSA (prostate specific antigen) (human) (UniProt P07288); test: sandwich ELISA, anti-PSA antibody capture, biotin-lectin detection, pH 9.6; serum of Healthy 4
[23] = biological target: serum fucosylated PSA (prostate specific antigen) (human) (UniProt P07288); test: sandwich ELISA, anti-PSA antibody capture, biotin-lectin detection, pH 9.6; sera of subgroup GS6, n=2
[24] = biological target: serum fucosylated PSA (prostate specific antigen) (human) (UniProt P07288); test: sandwich ELISA, anti-PSA antibody capture, biotin-lectin detection, pH 9.6; serum of Prostate cancer 4 (GS 6)
[25] = biological target: serum fucosylated PSA (prostate specific antigen) (human) (UniProt P07288); test: sandwich ELISA, anti-PSA antibody capture, biotin-lectin detection, pH 9.6; sera of the prostate cancer patient group (n=9)
[26] = biological target: serum fucosylated PSA (prostate specific antigen) (human) (UniProt P07288); test: sandwich ELISA, anti-PSA antibody capture, biotin-lectin detection, pH 9.6; subject samples B, subgroup Negative, n=9
[27] = biological target: serum fucosylated PSA (prostate specific antigen) (human) (UniProt P07288); test: sandwich ELISA, anti-PSA antibody capture, biotin-lectin detection, lectin reaction pH 9.6; serum of Healthy 1
[28] = biological target: serum fucosylated PSA (prostate specific antigen) (human) (UniProt P07288); test: sandwich ELISA, anti-PSA antibody capture, biotin-lectin detection, pH 9.6; serum of Prostate cancer 2 (GS 5)
[29] = biological target: serum fucosylated PSA (prostate specific antigen) (human) (UniProt P07288); test: sandwich ELISA, anti-PSA antibody capture, biotin-lectin detection, pH 9.6; serum of Prostate cancer 8 (GS 8)
[30] = biological target: serum fucosylated PSA (prostate specific antigen) (human) (UniProt P07288); test: sandwich ELISA, anti-PSA antibody capture, biotin-lectin detection, pH 9.6; serum of Prostate cancer 6 (GS 7)

- PhoSL reaction value [1]: 63.9 U/mL
- PhoSL reaction value (mean value) [2]: 120 U/mL
- PhoSL reaction value (median value) [2]: 211 U/mL
- PhoSL reaction value [3]: 179 U/mL
- PhoSL reaction value [4]: 116 U/mL
- PhoSL reaction value [5]: 39.7 U/mL
- PhoSL reaction value (mean value) [6]: 130 U/mL
- PhoSL reaction value (median value) [6]: 169 U/mL
- PhoSL reaction value (mean value) [7]: 142 U/mL
- PhoSL reaction value (median value) [7]: 142 U/mL
- PhoSL reaction value (average value) [8]: 57.3 U/mL
- PhoSL reaction value (median value) [8]: 55.9 U/mL
- PhoSL reaction value [9]: 55.8 U/mL
- PhoSL reaction value (mean value) [10]: 116 U/mL
- PhoSL reaction value (median value) [10]: 116 U/mL
- PhoSL reaction value [11]: 35.8 U/mL
- PhoSL reaction value [12]: 51.9 U/mL
- PhoSL reaction value (mean value) [13]: 233 U/mL
- PhoSL reaction value (median value) [13]: 240 U/mL
- PhoSL reaction value [14]: 126 U/mL
- PhoSL reaction value [15]: 59 U/mL
- PhoSL reaction value [16]: 55.9 U/mL
- PhoSL reaction value (mean value) [17]: 182 U/mL
- PhoSL reaction value (median value) [17]: 189 U/mL
- PhoSL reaction value [18]: 108 U/mL
- PhoSL reaction value [19]: 104 U/mL
- PhoSL reaction value [20]: 116 U/mL
- PhoSL reaction value [21]: 251 U/mL
- PhoSL reaction value [22]: 74.9 U/mL
- PhoSL reaction value (mean value) [23]: 142 U/mL
- PhoSL reaction value (median value) [23]: 142 U/mL
- PhoSL reaction value [24]: 179 U/mL
- PhoSL reaction value (average value) [25]: 145 U/mL
- PhoSL reaction value (median value) [25]: 126 U/mL
- PhoSL reaction value (mean value) [26]: 204 U/mL
- PhoSL reaction value (median value) [26]: 178 U/mL
- PhoSL reaction value [27]: 51.9 U/mL
- PhoSL reaction value [28]: 117 U/mL
- PhoSL reaction value [29]: 130 U/mL
- PhoSL reaction value [30]: 168 U/mL
Substance: Pholiota squarrosa lectin (PhoSL), biotin-labeled
